Laboratory results as given in the Immune Epitope Database (IEDB).

What was measured:
[1] = molecular target: HLA-B*57:01; experiment: IEDB peptide-MHC binding, purified MHC/competitive/radioactivity; filed as Kd, often an IC50 or EC50 that approximates it; ≥ and ≤ were set here for values at or beyond the usual limits of such assays
[2] = molecular target: HLA-B*58:01; experiment: as above
[3] = molecular target: HLA-B*15:42; experiment: IEDB peptide-MHC binding, purified MHC/competitive/fluorescence; filed as Kd, often an IC50 or EC50 that approximates it; ≥ and ≤ were set here for values at or beyond the usual limits of such assays; conditions: source organism: Mycobacterium tuberculosis H37Rv
[4] = molecular target: HLA-B*45:06; experiment: as above; conditions: source organism: Mycobacterium tuberculosis H37Rv
[5] = molecular target: HLA-B*83:01; experiment: as above; conditions: source organism: Mycobacterium tuberculosis H37Rv
[6] = molecular target: HLA-C*03:03; experiment: IEDB peptide-MHC binding, purified MHC/direct/fluorescence; filed as Kd, often an IC50 or EC50 that approximates it; ≥ and ≤ were set here for values at or beyond the usual limits of such assays
[7] = molecular target: HLA-C*07:02; experiment: as above; conditions: source organism: Human herpesvirus 4 strain B95-8
[8] = molecular target: HLA-A*02:01; experiment: IEDB peptide-MHC binding, purified MHC/competitive/fluorescence; filed as Kd, often an IC50 or EC50 that approximates it; ≥ and ≤ were set here for values at or beyond the usual limits of such assays
[9] = molecular target: HLA-A*02:12; experiment: as above
[10] = molecular target: HLA-A*02:19; experiment: as above
[11] = molecular target: HLA-A*03:01; experiment: as above
[12] = molecular target: HLA-A*24:03; experiment: as above
[13] = molecular target: HLA-A*26:01; experiment: as above
[14] = molecular target: HLA-A*68:02; experiment: as above; conditions: source organism: Escherichia coli str. K-12 substr. W3110
[15] = molecular target: HLA-A*69:01; experiment: as above
[16] = molecular target: HLA-B*15:17; experiment: as above
[17] = molecular target: HLA-B*18:01; experiment: as above
[18] = molecular target: HLA-B*27:03; experiment: as above
[19] = molecular target: HLA-B*39:01; experiment: as above
[20] = molecular target: HLA-B*46:01; experiment: as above
[21] = molecular target: HLA-B*51:01; experiment: as above
[22] = molecular target: HLA-B*57:01; experiment: as above
[23] = molecular target: HLA-C*15:02; experiment: IEDB peptide-MHC binding, purified MHC/direct/fluorescence; filed as Kd, often an IC50 or EC50 that approximates it; ≥ and ≤ were set here for values at or beyond the usual limits of such assays; conditions: source organism: Bacillus cereus G9241
[24] = molecular target: HLA-A*02:03; experiment: IEDB peptide-MHC binding, purified MHC/competitive/fluorescence; filed as Kd, often an IC50 or EC50 that approximates it; ≥ and ≤ were set here for values at or beyond the usual limits of such assays; conditions: source organism: Bacillus cereus G9241
[25] = molecular target: HLA-B*15:01; experiment: as above
[26] = molecular target: HLA-B*35:01; experiment: as above
[27] = molecular target: HLA-A*01:01; experiment: IEDB peptide-MHC binding, purified MHC/competitive/radioactivity; filed as Kd, often an IC50 or EC50 that approximates it; ≥ and ≤ were set here for values at or beyond the usual limits of such assays; conditions: source organism: Dengue virus 2 Jamaica/1409/1983
[28] = molecular target: HLA-B*53:01; experiment: as above; conditions: source organism: Dengue virus 2 Jamaica/1409/1983
[29] = molecular target: HLA-B*15:01; experiment: IEDB peptide-MHC binding, purified MHC/direct/fluorescence; filed as Kd, often an IC50 or EC50 that approximates it; ≥ and ≤ were set here for values at or beyond the usual limits of such assays; conditions: source organism: Reston ebolavirus - Reston
[30] = molecular target: HLA-B*58:01; experiment: as above; conditions: source organism: Reston ebolavirus - Reston
[31] = molecular target: HLA-A*32:01; experiment: IEDB peptide-MHC binding, purified MHC/competitive/radioactivity; filed as Kd, often an IC50 or EC50 that approximates it; ≥ and ≤ were set here for values at or beyond the usual limits of such assays; conditions: source organism: Dengue virus 4 Philippines/H241/1956
[32] = molecular target: HLA-A*11:01; experiment: IEDB peptide-MHC binding, purified MHC/competitive/fluorescence; filed as Kd, often an IC50 or EC50 that approximates it; ≥ and ≤ were set here for values at or beyond the usual limits of such assays
[33] = source organism: Dengue virus 1 Brazil/97-11/1997
[34] = source organism: Dengue virus 2 Jamaica/1409/1983
[35] = source organism: Escherichia coli str. K-12 substr. W3110
[36] = source organism: Bacillus cereus G9241
[37] = source organism: Bacillus anthracis str. A0488
[38] = source organism: Vibrio vulnificus CMCP6
[39] = source organism: Reston ebolavirus
[40] = source organism: Dengue virus 4 Philippines/H241/1956
[41] = source organism: Mycobacterium tuberculosis variant bovis BCG str. Pasteur 1173P2

ASSALLWMAS was tested, and the Kd [1, 33] was 17.1 µM and the Kd [2, 33] was 17 µM.
ASSLLKNDIP was tested, and the Kd [1, 34] was 8.58 µM and the Kd [2, 34] was 2.1 µM.
With FPRIGTAVF the Kd [3] was no less than 5 µM, the Kd [4] was no less than 5 µM and the Kd [5] was 8.31 µM.
FYNIPPMPL showed a Kd ([6]; source organism: Human herpesvirus 4 strain B95-8) of 0.051 µM and a Kd [7] of 0.043 µM.
IQFDWYPTS showed a Kd [8, 35] of no less than 20 µM, a Kd [9, 35] of 0.624 µM and a Kd [10, 35] of no less than 20 µM. For the same sequence, the Kd [11, 35] was no less than 20 µM, the Kd [12, 35] was no less than 20 µM and the Kd [13, 35] was no less than 20 µM. The Kd [14] was no less than 20 µM, the Kd [15, 35] was no less than 20 µM and the Kd [16, 35] was no less than 20 µM. For the same sequence, the Kd [17, 35] was no less than 20 µM, the Kd [18, 35] was no less than 20 µM and the Kd [19, 35] was no less than 20 µM. For the same sequence, the Kd [20, 35] was no less than 20 µM, the Kd [21, 35] was no less than 20 µM and the Kd [22, 35] was no less than 20 µM.
Work on ITNPFFYQM yielded a Kd [23] of 0.056 µM, a Kd [24] of no less than 20 µM and a Kd [11, 36] of no less than 20 µM. It also gave a Kd [13, 36] of no less than 20 µM, a Kd [17, 36] of no less than 20 µM and a Kd [18, 36] of no less than 20 µM. For the same sequence, the Kd [19, 36] was no less than 20 µM and the Kd [22, 36] was 0.27 µM.
IVVDNTSAF showed a Kd [25, 37] of 0.0704 µM and a Kd [26, 37] of 0.0004 µM.
With KAINVLRGF the Kd [1, 34] was 0.00343 µM and the Kd [2, 34] was 0.043 µM.
For KSYAQMWQL, the Kd [1, 33] was 0.00198 µM and the Kd [2, 33] was 0.00783 µM.
For LMLHQQYNQ, the Kd [8, 38] was 0.191 µM, the Kd [9, 38] was 0.186 µM and the Kd [10, 38] was no less than 20 µM. The Kd [11, 38] was no less than 20 µM, the Kd [12, 38] was no less than 20 µM and the Kd [13, 38] was no less than 20 µM. For the same sequence, the Kd [25, 38] was no less than 20 µM, the Kd [17, 38] was no less than 20 µM and the Kd [18, 38] was no less than 20 µM. The Kd [19, 38] was no less than 20 µM, the Kd [21, 38] was no less than 20 µM and the Kd [22, 38] was no less than 20 µM.
LTSSQQKADW gave a Kd [27] of 11 µM, a Kd [28] of no less than 21.8 µM and a Kd [1, 34] of 0.1 µM. For the same sequence, the Kd [2, 34] was 0.0592 µM.
With QAFEAGIDF the Kd [29] was 0.0766 µM, the Kd [30] was 1.03 µM and the Kd [8, 39] was no less than 20 µM. For the same sequence, the Kd [13, 39] was no less than 20 µM, the Kd [15, 39] was no less than 20 µM and the Kd [16, 39] was no less than 20 µM. For the same sequence, the Kd [17, 39] was no less than 20 µM, the Kd [18, 39] was no less than 20 µM and the Kd [26, 39] was 0.0002 µM. For the same sequence, the Kd [19, 39] was no less than 20 µM, the Kd [21, 39] was no less than 20 µM and the Kd [22, 39] was no less than 20 µM.
RSWNTGFDW was tested, and the Kd [31] was 0.0447 µM, the Kd [1, 40] was 0.0138 µM and the Kd [2, 40] was 0.0179 µM.
Work on SAFGGGNAF yielded a Kd [6, 41] of no more than 0.001 µM and a Kd [20, 41] of 0.0368 µM.
With SSFSFGGFTFK the Kd ([32]; source organism: Influenza A virus H3N2) was 0.0005 µM.
Sequence TAAVLMLVAH has a Kd [2, 33] of 5.54 µM.
For TVFSLLLFY, the Kd ([32]; source organism: Yersinia pestis Nepal516) was 0.5 µM.
Work on VASGLLWVAE yielded a Kd [1, 40] of no less than 70.4 µM and a Kd [2, 40] of 0.0754 µM.
